Our source for the OD450-blank values is patent publication CN112125972A (SINOCELLTECH LTD, dated 2020).

Common to all, as to assay: indirect ELISA, VLP coated at 2 μg/mL, antibody at 10 ng/mL
For orientation: An ELISA detects its analyte on a solid surface through an enzyme-linked reagent.

The target of assay [1] is T1, HPV51 VLP (Human papillomavirus type 51, UniProt P26536 1-504).
T1 construct: also called HPV51完整VLP蛋白
T1 sequence: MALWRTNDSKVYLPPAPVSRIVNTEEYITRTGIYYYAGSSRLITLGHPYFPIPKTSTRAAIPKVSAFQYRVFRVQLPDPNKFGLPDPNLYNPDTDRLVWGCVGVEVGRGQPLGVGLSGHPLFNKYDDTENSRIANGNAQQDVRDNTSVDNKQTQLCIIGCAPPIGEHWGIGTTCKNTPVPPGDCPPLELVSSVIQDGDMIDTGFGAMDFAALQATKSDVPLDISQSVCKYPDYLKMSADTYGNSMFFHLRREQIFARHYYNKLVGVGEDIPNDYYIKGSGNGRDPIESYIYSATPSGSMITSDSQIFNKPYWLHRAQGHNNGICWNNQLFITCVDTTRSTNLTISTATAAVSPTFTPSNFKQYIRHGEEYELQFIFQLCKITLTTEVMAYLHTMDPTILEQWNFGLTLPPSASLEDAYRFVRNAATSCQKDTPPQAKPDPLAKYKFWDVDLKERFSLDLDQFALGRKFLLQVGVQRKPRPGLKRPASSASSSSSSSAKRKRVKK

The target of assay [2] is T2, HPV52 VLP (Human papillomavirus type 52, UniProt Q05138 27-529).
T2 construct: also called HPV52完整VLP蛋白
T2 sequence: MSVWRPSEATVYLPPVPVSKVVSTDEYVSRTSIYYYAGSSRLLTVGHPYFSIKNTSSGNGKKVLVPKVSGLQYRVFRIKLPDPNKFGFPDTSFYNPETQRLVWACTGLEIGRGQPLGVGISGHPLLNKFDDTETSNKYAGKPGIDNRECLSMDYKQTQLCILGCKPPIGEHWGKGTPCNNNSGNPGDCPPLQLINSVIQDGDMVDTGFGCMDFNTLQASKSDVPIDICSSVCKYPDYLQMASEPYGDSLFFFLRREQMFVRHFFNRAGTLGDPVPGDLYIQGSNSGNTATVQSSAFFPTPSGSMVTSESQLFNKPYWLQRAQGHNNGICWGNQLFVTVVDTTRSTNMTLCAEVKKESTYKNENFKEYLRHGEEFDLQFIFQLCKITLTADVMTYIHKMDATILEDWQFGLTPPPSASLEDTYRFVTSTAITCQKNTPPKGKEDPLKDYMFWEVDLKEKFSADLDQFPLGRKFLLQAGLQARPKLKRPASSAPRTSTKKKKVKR

For assay [3], the target named is T3, HPV16 L1 VLP蛋白 (Human papillomavirus type 16).
T3 construct: Intact virus-like particle of L1; also called HPV16 VLP; HPV16 VLP蛋白

The target of assay [4] is T4, HPV31 VLP (Human papillomavirus type 31, UniProt P17388 1-504).
T4 construct: also called HPV31完整VLP蛋白
T4 sequence: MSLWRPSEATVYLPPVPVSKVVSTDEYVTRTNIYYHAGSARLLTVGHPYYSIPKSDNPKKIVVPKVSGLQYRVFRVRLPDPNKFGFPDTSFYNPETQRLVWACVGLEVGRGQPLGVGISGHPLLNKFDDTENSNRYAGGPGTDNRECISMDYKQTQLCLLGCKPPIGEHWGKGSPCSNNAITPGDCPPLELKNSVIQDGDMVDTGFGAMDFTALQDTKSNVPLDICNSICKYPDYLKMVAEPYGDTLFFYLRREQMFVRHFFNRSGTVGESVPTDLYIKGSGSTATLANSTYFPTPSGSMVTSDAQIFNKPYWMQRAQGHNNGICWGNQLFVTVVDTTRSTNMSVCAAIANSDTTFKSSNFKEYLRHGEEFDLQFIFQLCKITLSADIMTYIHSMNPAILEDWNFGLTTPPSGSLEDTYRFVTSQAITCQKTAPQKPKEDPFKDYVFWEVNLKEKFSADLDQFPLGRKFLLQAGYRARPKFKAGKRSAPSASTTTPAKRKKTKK

Assay [5] concerns the target T5, HPV35 VLP (Human papillomavirus type 35, UniProt P27232 1-502).
T5 construct: also called HPV35完整VLP蛋白
T5 sequence: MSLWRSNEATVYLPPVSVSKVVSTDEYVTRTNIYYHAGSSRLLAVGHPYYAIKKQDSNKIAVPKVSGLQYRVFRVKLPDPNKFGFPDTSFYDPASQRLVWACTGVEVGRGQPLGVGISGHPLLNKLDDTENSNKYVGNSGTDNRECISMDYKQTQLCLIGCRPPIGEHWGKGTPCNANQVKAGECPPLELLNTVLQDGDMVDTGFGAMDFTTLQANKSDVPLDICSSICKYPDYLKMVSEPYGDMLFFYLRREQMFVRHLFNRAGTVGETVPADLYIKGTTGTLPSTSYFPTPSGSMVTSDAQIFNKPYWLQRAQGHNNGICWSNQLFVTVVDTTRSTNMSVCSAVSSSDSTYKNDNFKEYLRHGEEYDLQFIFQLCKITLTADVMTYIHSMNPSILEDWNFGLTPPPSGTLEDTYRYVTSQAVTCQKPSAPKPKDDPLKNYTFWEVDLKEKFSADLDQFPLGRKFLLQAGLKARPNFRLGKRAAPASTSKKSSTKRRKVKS

Assay [6] addresses T6, HPV39 VLP (Human papillomavirus type 39, UniProt P24838 1-505).
T6 construct: also called HPV39完整VLP蛋白
T6 sequence: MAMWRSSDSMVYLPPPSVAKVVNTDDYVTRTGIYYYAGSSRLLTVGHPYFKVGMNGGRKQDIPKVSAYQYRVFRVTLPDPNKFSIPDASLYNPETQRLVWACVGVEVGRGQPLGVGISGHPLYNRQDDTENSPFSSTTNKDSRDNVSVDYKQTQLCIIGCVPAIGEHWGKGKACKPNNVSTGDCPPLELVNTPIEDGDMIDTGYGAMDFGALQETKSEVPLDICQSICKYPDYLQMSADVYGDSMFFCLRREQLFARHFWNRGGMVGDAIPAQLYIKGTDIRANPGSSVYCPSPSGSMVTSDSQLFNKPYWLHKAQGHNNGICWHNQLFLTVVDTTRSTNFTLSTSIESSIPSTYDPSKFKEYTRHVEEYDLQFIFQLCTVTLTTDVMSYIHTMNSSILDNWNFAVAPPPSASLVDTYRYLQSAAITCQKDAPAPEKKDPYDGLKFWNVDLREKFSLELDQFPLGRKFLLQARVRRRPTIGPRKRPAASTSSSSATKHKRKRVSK

B1: HPV 16 R001 (antibody, V domains shown)
VH: QSVKESEGRLVTPGTPLTLTCTASGFTMSRYHMTWVRQAPGKGLEWIGIIYARNSDTYYANWAKGRFTISKTSTTVDLKITSPTIEDTATYFCARVDSDSSGAFDRLDLWGQGTLVTVSS
VL: DPMLTQTAASVEVAVGGTVTIKCQASQSIGGYLSWYQQKPGQRPKLLIYRASTLASGVPSRFKGSGSGTEYTLTFSGVECADAAAYYCQQGYTSSDINNAFGGGTEVVVK
notes: An HRP-labelled form served as detection antibody in the sandwich ELISA; also called HPV16.001; 单克隆抗体HPV 16 R001
With B1, the OD450-blank was 0.001 OD450 in assay [1]; 0.003 OD450 in assay [2]; 2.53 OD450 in assay [3]; 0.002 OD450 in assay [4]; 0.001 OD450 in assay [5]; 0.004 OD450 in assay [6].
